The values that follow come from article PMC3934309.

The test has as its target DsbC-MPK4 fusion (construct pT7-DsbC-MPK4) (E. coli | Leishmania major) (UniProt P0AEG6). Put plainly: SEC; analytical size exclusion chromatography of the IMAC purified fraction of the uncleaved DsbC-MPK4 fusion; peak at 8.4 ml; apparent molecular weight.

As for “DsbC-MPK4 fusion (construct pT7-DsbC-MPK4) (from UniProt P0AEG6 21-236; Q4QD66 1-363)”, the stoichiometry N is 10.

A word on the stoichiometry N: it is the number of molecules, sites or subunits per partner or assembly.
